The values below come from US9850300B2, “Compositions and methods relating to inhibiting cancer cell growth and/or proliferation” (The Regents of the University of Michigan, priority 2013, dated 2017).

What all share (type): cell-based
In assay [1] the test system is phosphorylation of SHP2, ERK, FAK and SRC in SKOV3 cells. Nature of the assay: Western blot of EGFL6 mediated signal activation. As for the experimental part: Lastly, EGFL6 mediated signal activation was evaluated. Integrin signaling has been reported to induce the […] of FAK, SRC and SHP2 among others. […] Phosphorylation of all of these proteins could be blocked with Echistatin.
Cellular signaling changes associated with EGFL6 was next examined. […] EGFL6 treatment was associated with increased p-SHP2 levels specifically in ALDH^+ cells (FIG. 4Ei). […] SHP2 phosphorylation could be blocked with Echistatin (FIG. 4Eiii) or an EGFL6-blocking antibody. SHP2 phosphorylation was associated with increased p-ERK levels (4Ei-iii).
(§1) SKOV3, A2008, and A2780 were maintained in RPMI-1640, supplemented with 10% FBS with 1% Penicillin/Streptomycin, and cultured in humidified atmosphere of 5% CO2 at 37° C. For all in vitro cell culture experiments, isolated cells were allow to recover overnight following FACS, prior to treatment. Infantile Hemangioma Stem cells were maintained in EBM-2 medium with growth factor supplement cocktails in culture plates coated with fibronectin. For Echistatin and EGFL6 treatment, cells were pretreated with Echistatin (Sigma, 100 nM) for 24 hours prior to EGFL6 treatment. All transfections were performed using FuGene6 reagent (Promega) per company protocol.
EGFL6 monoclonal antibody producing hybridoma cells were maintained in RPMI medium supplemented with 10% FBS. For antibody purification, the cells were cultured in reduced FBS (5%). Culture supernatant was collected and cell debris was removed by centrifugation. EGFL6 antibody was pulled down using Protein G Agarose heeds, Fast Flow (Millipore), washed and eluded with 50 mM glycine PH.2.7. Antibody solution was immediately neutralized to PH 7.2-7.4 with Tris (Ph 9.0, final concentration 25 mM). NaCl was added to final concentration of 150 mM. EGFL6 antibody was applied at 5 μg/ml for in vitro cell treatment and 50 μg/mouse for in vivo treatment.

For assay [2], the system named is SKOV3, OVCAR3, OVCAR8, and primary ovarian tumor cells. Nature of the assay: EGFL6 treatment of ovarian cancer cells, total cell number.
Source text: EGFL6 was next expressed in HEK293 cells, NIH3T3 cells, and SKOV3 ovarian cancer cells. Western blot analysis confirmed secretion of EGLF6 in both transient and stable transfectants (FIG. 2Ai, 2D) from all three cell lines. EGFL6 protein was purified to >95% purity (FIG. 2Aii) and treated ovarian cancer cells with either purified EGFL6, supernatant from EGFL6-expressing HEK293 cells, or supernatant from control transfected HEK293 cells. Purified fusion protein and supernatant from EGFL6 transfected cells had similar effects. EGFL6 treatment of SKOV3, OVCAR3, OVCAR8, and primary ovarian tumor cells was associated with a 30-40% increase in total cell number (FIG. 2B).
as §1, with “protocol. […]” for “protocol.”

A further assay concerns cellular migration. In words: Transwell migration assay with EGFL6 protein as chemoattractant.
A further assay relates to SKOV3 cells. In words: Cell cycle analysis (propidium iodine, FACS). As to conditions: EGFL6 treatment 24 hrs after serum starvation. As for the experimental part: SKOV3 cells were seeded at 5×10^5 in 6 cm culture plates, synchronized by serum starvation for 24 hrs, then treated with EGFL6 or control for 24 hrs. Cells were fixed with ice-cold alcohol, washed with PBS, and stained with propidium iodine ([…]) and RNase A (100 ug/ml) in PBS for 1 hr at 30° C. Cell cycle profile was acquired by FACS analysis and data were analyzed by Flowjo.

Entries after “also recorded” stand apart in the source; their conditions may differ.

B1: EGFL6: recombinant EGFL6-flag protein from transfected HEK293 cells, used purified or as 72 hr supernatant (protein)
chain: NAASARHHGLLASARQPGVCHYGTKLACCYGWRRNSKGVCEATCEPGCKFGECVGPNKCRCFPGYTGKTCSQDVNECGMKPRPCQHRCVNTHGSYKCFCLSGHMLMPDATCVNSRTCAMINCQYSCEDTEEGPQCLCPSSGLRLAPNGRDCLDIDECASGKVICPYNRRCVNTFGSYYCKCHIGFELQYISGRYDCIDINECTMDSHTCSHHANCFNTQGSFKCKCKQGYKGNGLRCSAIPENSVKEVLRAPGTIKDRIKKLLAHKNSMKKKAKIKNVTPEPTRTPTPKVNLQPFNYEEIVSRGGNSHGGKKGNEEKMKEGLEDEKREEKALKNDIEERSLRGDVFFPKVNEAGEFGLILVQRKALTSKLEHKDLNISVDCSFNHGICDWKQDREDDFDWNPADRDNAIGFYMAVPALAGHKKDIGRLKLLLPDLQPQSNFCLLFDYRLAGDKVGKLRVFVKNSNNALAWEKTTSEDEKWKTGKIQLYQGTDATKSIIFEAERGKGKTGEIAVDGVLLVSGLCPDSLLSVDD
With B1, in assay [1] (EGFL6 treated SKOV3 cells), the p-FAK levels result was “modest increase” and the p-SRC levels entry is “modest increase”. In addition, the p-SHP2 levels result in assay [1] (treatment of ALDH+ SKOV3 cells) was “further increase; also recorded: increased”. In addition, the p-ERK levels result in assay [1] (treatment of ALDH+ and ALDH(−) cells) is recorded as “increase p-ERK”. Also, the “increase in total cell number” value in assay [2] (EGFL6 treatment vs control supernatant) is listed as 30-40%. In assay [2] (increasing concentrations of EGFL6), the total cell numbers result is given as “increasing total cell numbers”. Also, the “cellular migration in transwell assay” value in the assay on cellular migration was “increased cellular migration”. In the assay with SKOV3 cells, the “decrease in the number of cells in G1 phase” value is reported as about 20%; the “number of cells in S and G2/M phases” value was “concomitant increase”.
